Test results reported in the nanobody polyreactivity screen of Harvey et al. (2022).

Assay: yeast display, Sf9 membrane polyspecificity reagent, FACS + sequencing; frameworks hold sequencing errors
Procedure, shortened: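 Genes from sorted yeast were amplified by colony PCR, read by MiSeq 2 × 250 sequencing and filtered on CDR length. These cells carried a synthetic nanobody library in Saccharomyces cerevisiae BJ5465 and were sorted by FACS into low and high (top ~1%) gates on anti-HA and streptavidin fluorescence. Polyreactivity is labelled according to the gate of origin.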

Sequence	polyreactivity (PSR sort gate)
QVQLVESGGGLVQAGGSLRLSCAASGSTFSYNAMGWYRQAPGKERELVAAFSFISGSTYYADSVKGRFTISRDNAKNTVYLQMNSLKPEDTAVYFCAKRYRLRGRYDYWGQGTQVTVSS	high polyreactivity
QVQLVESGGGLVQAGGSLRLSCAASGRIFNRNAMGWYRQAPGKERELVAAITRGGRTNYADSVKGRFTISRDNAQNTVYLQMNSLKPEDTAVYYCAAAYYGSHGRYDYWVQGTQVTVSS	high polyreactivity
QVQLVESGGGLVQAGGSLRLRCAASGSTFYGYAMGRYRQAPGTERELVALISSSSGRTYYADSVKGRFTISRDNAKNTLYLQMNSLKPEDTAVYDCAKYVFGKFEGVRYSFDYWGQGTQVTVSS	low polyreactivity
QVQLVESGGGLVQAGGSLRISCAASGRNFPNYAMGWYRQAPGKERELVAAITSSGGSTYYADSVKGRFTISRDNAKNTVYLQMNSLKPEDTAVYYCNAGSWIRNDYWGQGTQVTVSS	high polyreactivity
QVQVVESGGGLVQAGGSLRLSCAASGFIFRTYTMGWYRQAPGKERELVAAISYRGSSTYYADSVKGRFTISRDNAKNTVYFLMNSLKPEDTADYYCAAQLYGHRGYYWGQGTQVTVSS	high polyreactivity
QVQLVESGGGLVQAGGSLRLSCAASGSIFGHYAMGWYRQAPGKERELVAAISWSGTSTYYADSVKGRFTISRDNAKNTVYLQMNSLKPEDTAVYYCAAEASYNYGKYVVTYDYWGQGTQVTVSS	high polyreactivity
KVQLVESGGGLVQAGGSLRLSCAASGLTFSVYAMGWYRQAPGKERELVAAITNSGGSTYYADSVKGRFTISRDNAKNTVYLQMNSLIPEDTAVYYCAARYSTYYSGPPGLHLDYYYWGQGTQVTVSS	low polyreactivity
QVQLVESGGGLVQAGGSLRLSCAASGIIFLDYVMGWYRQAPGKERELVAAISRSGGTTYYADSVKGRFTISRDNAKNTVYLQMNSLKPEDTAVYYCAVRSYRDTRFYYWGQGTKVTVSS	high polyreactivity
QVQLVESGGGLVQAGGSLRLSCAASGSTFEGNAMGWYRQAPGKERELVAAITSGGSTNYADSVKGRFTISRDNAKNNVYLQMNSLKPEDTAVYYCAADTVSFSILYDYWGQGTQVTVSS	low polyreactivity
QVQLVESGGALVQARGSLRLSCAASGRTFVWYAMGWYRQAPGKERELVAAITLSGGSTYYADSVKGRFTISRDNAKNTVYLQMTSLKPEDTAVYYCAADGTYRPEDYDYWGQGTKVTVSS	low polyreactivity
QVQLVESGGGLVQAGGSLRLSCAASGSTFRYYAMGWYRQAPGKERELVAGICSGGTTKYADSVKGRFTISRDNAKNTVYLQMNSLKPEDSAVYYCAARFRRTRVTYYYWGQGTQVTVSS	high polyreactivity
EEELVESGGGLVQAGGSLRLSCAASGRTFVYNAMGWYRQAPGTERELVAAITSGDSTYYADSVKGRFTISRDNAKNTVYLQMNSLKPEDTAVYYCATDYSGIFYWYDYWGQGTQVTVSS	low polyreactivity
QVQLVESGGGLVQAGGSLRLSCAASGRTLPRYAMGGYRQAPGKERELVARIRYRGVSTYYADSVKGRFTISRDNAKTSVYLQMNSLKPEDTAVYYCAARASRAGLSGYWGQGTQVTVSS	high polyreactivity
QVQLVESGVVLVQAGGSLRLSCAASGTIFDLNAMGWYRQAPGKEREFVAAISSGGGTYYADSVKGRFTISRDNANNTVYLQMNSQKPEDTAVYYCKARARRYGGRYYYWGQGTQVTVSS	high polyreactivity
QVQLVESGGGLVQAGGSLRLSCSASGSTFGRNSMGRYRQAPGKEREVVAAISWRSTRTYYADSVKGRFTISRDHAKNTVDLQMNSLKPEDNAGYYCAVYYFYPSTNCYHYDYWGQGTQVTVSS	high polyreactivity
QVQLVESGGGLVQAGGSLRLSCAASGRTFIFYAMGWYRQAPGKERELVAAITYSGTSTYYADSVKGRFTISRDNAKNTVYLQMNSLKPEDTAVYYCASRPTPYRDDADEYWGQGTQVTVSS	low polyreactivity
QVQLVESGGGLVQAGGSLRLSCAASGRIFIRYAMGWYRQAPGKERELVAAISRSGGSTYYADSVKGRITISRDNAKNTVYLQMNSLKPEDTAVYYCAAVSSSTWLEYYYWGQGTQVTVSS	high polyreactivity
QVQLVESGGGLVQAGGSLRLSCAASGSTLKRYAMGWYRQAPGKERELVARISRIGGSTFYADSVKGRFTISRDNAKNTVYLQMNSLNPEDTAVYYCAAVPLHYVYRADQAYYRYNYWGQGTQVTVSS	high polyreactivity
QVQLVDSGGGLVQAGGSLRLSCAASGFTFYAYGRGWNRQAPGKERELVATITWCGGNTYYADSVKGRFTISRDNAKNTVYLQMNSLKPEDTAVYYCAARLPSPIRPSRGYYDYWGQGTQVTVSS	low polyreactivity
QVQLVESGGGLVQAGGSLRLSCAASGFTFQGNVMGWYRQAPGKERELVAASTGGGGDTYSADSVKGRFTISRDNAKNTVYLQMNSLKPEDTAVYYCAAEVAPEWYWPWFFDYADGYWGQGTQVTLSS	high polyreactivity
QVQLQESGGRLVQAGGSLRMSCAASGTIFSEANMGWYRQAPGKERELVATIGQGSTTNYADSVKGLFTISRDNAKNTVYLQMNSLKPEETAVYYCAVVTVDPVGFVYWGQGTQVTVSS	low polyreactivity
QVQLVESGGGLVQAGGILSLSCAASGFIFLYNMGWYRQAPGKEWQLVADISTGVSTNYADSVKGRFTISRDNAKNSVYLQMNSLKPEDTAVYYCAAVYYNGYQYEPWYDYWGQGTQVTVSS	low polyreactivity

Sequence	polyreactivity (PSR sort gate)
QVQLVESGGGLVQAGGSLRLSCAASGFTLYWNAMGWYRPAPGTERELVAGITNGGDTYYADSVKGRFTISRDNAKNTVYLQMNSLKPEDTAVYYCNVDPVYYRFHSSLSVIPGYDYWGQGTQVTVSS	low polyreactivity
QVQLVDSGGGLVQAGGSLRLSCAASGSIFFIYAMGWYRQATGKERELVATITSGGSTYYADSVKGRFTISRDNAKNTVYLQMNSLKPEDTAVYYCAKYFVYVGYGRYDYWGQCTQVTVSS	low polyreactivity
QVQLVESGGGLVQAGGSLRLSCAASGSTLVTYAMGWYRQAPGKERELVAGISSGGSTNYADSVKGRFTISRDNAKNTVYLQMNSLKPEDTAVYYCAAQGSLTWWAATFIYDYWGQGTQVTVSS	low polyreactivity
QDQLVESGGGLVQAGGSLRLSCAASGSTFPPYAMGWNRQAPGKERELVDTSTRIGGSTYYADSVKGRFTISRDNAKKTVYLQKNSLKPEDTALYYCTARRYQSYRYYYWGQGTQVTVSS	high polyreactivity
QVQLVESGGGLVQAGGSLRLTCAASGGTIFPNAMGWYRQAPGKEMELVATITSSDTTNYADSVKGRFTISRDNAMNTVYLQMNSLKTEDTAVYYCDASFKLRYWDYYYWGQGTQVTVSS	low polyreactivity
QVQLVESGGGLVQAGCSLRLSCAASGRIIDGYAMGWYRQAPGKEREFVAAITWIGGRTYYADSVKGRFTISRDNAKITVYLHMNSLKPEDTAVYYCAVVQSRYRGRFDYWGQGTQVTVTS	high polyreactivity
QVQLVESGGGLVQAGGSLRLSCAASGFIFYKYAMGWYRQAPGKERELVAAITRSGGSTFYADSVKGRFTISRDNAKNTVYLQMNSLKPEDTAVYYCAADAIVQVTPRPRRYDYWGQGTQVTVSS	high polyreactivity
QVQLVESGGGLVQAGGSLRLSCAASGSTLFLYAMGWYRQAPGKERELVAAITWSGGSTYYADSVKGRFTISRDNAKNTVYLQMNSLKPEDTAVYYCAKYGRYFWNSGVDYWGQGTQVTVSS	high polyreactivity
QVQHVESGGGLVQAGGSLLLSCAASGFIFKSNAMGWYRQAPGKERELVAAITSSGGRTYYADSVKGRFTISRDNAKNTVYLQMNSLKPEDTAVYYCAADIALGRYYYWGQGTQVTVSS	high polyreactivity
QVQLEESGGGLVQAGGSLRLSCAASGSIFGYNHMGWYRQAPGKERELVATITWGGGRTRYADSVKGRFTISRVNAKNTVYLQMNSLKPEDTAVYYCAADKRSYSYVRPPRNHEDYWGQGTQVTVSS	low polyreactivity
QLQLVESGGGLVQAGGRLRLTCAASGRTFPYYFMGWYRPAPGKERELVAAINSGGRTNYADSVKGLFTISRDNAKNTVYLQMNSLKPEDTAVYYCTKRGHPARLGYYYWGQGTQVTVSS	low polyreactivity
QVQLVESGGGLVQAGGSLRLSCAASGGIFLSNAMGWYRQAPGKERELVAAISRSGGSTYYADSVKWRFTISRDNAKNTVYLQMYSLKPEDTAVYYCAARWTRNYGMNYWGQGTQVTVSS	high polyreactivity
QVQLVESGGGLVQAGGSLRLSCAASGNIFSSNAMGWYRQAPGKERELVAAITRSGGSTYYADSVKGRFTISRDNSKKTVYLLMNSLKPEDTAFYYCAARHYPRNSWGYDYWGQGSQVTVSS	high polyreactivity
QVQLVESGGGLVQAGGSLRLSCAASGRTFGRYAMGWYRQAPGKERELVARIRTSGGRTYYADSVKGRFTISRDIAKNTVYLLMNSLNPEDTAVYYCGTSSQPWYYWSTQGDDFWGQGTQVSVSS	low polyreactivity
QDQLVESGGGLVQAGGSLRLSCAPSGRTFRYNAMGWYIQAPVKERELVAAINWNCGSTYYADSVKGRFTISRDNAKNTVYLQMNSLKPEDTAVYYCNADFYHRYDWGQGTQVTVSS	high polyreactivity
QVHLVESGGGLVQAGGSLRLSCAASGRTFSRYAMGWYRQAPGKERELVAGISLSGTSTYYADSVKGRFTISRDNAKNTVYLQMNSLIPVVTAVYYCATYSSYIPYGFDYWGQGTQVTVSS	high polyreactivity
QVQLVESGGGLVQAGGSLRLSCAASGLTIGYYAMGWYRQAPGKERELVAAISGSGGATYYADSVKGRFTISRDNAKNTVYLQMNSLKPEDTAVYYCAAKWGRTGRFDYWGQGTQVTVSS	low polyreactivity
QVQLVESGGGLVQAGGSLRLSCAASGFIFGLYAMGWYRQAPGKERELVATISWDGGSTYYADSVKGRFTISRDNAKNTVYLQMNSLKPEDTAVYYCNARYIGGYGYWGQGTQVTVSS	low polyreactivity
QVQLVESGGCIVQAGGSLRLSCAASGRICYTNAMVWYRQAPGKERELVAVISWGGDTTYYADSVKGRFTISRDNANNTVYLQMNSLKPEDTAGYYCNADWGPPYEIYDSWGQGTQVTVSS	low polyreactivity
QVQLVESGGGLVQAGGSLRLSCAASGLTFRKYAMGWYRQAPGKERELVATISRNGGSTYFADSVKGRFTISRDNAKNTVYLQMNSLKPEDTAVYYCAADYYTYDYAGYGYWGQGTQVTVSS	high polyreactivity
QVQLVESGGGLVQAGGSLRLSCAASGFILPYYTMGWYRQAPGKDRELVAAITYSGASPFYADSVKGRFTISRVNAKNTVYLQMNSLKPEDTGVYYGANEWSGWYESPLDDGDYDYWGQGTEVTVSS	low polyreactivity
